The supplement of paper PMC12667976
± gives the standard error.

B1: library; numbered along this chain (parent)
chain: MATDAALRRLLRLHRTEIAVAVDSAFPLLHALADHDVVPEDKFQETLHLKEKEGCPQAFHALLSWLLTQDSTAILDFWRVLFKDYNLERYGRLQPILDSFPKDVDLSQPRKGRKPPAVPKALVPPPRLPTKRKASEEARAAAPAALTPRGTASPGSQLKAKPPKKPESSAEQQRLPLGNGIQTMSASVQRAVAMSSGDVPGARGAVEGILIQQVFESGGSKKCIQVGGEFYTPSKFEDSGSGKNKARSSSGPKPLVRAKGAQGAAPGGGEARLGQQGSVPAPLALPSDPQLHQKNEDECAVCRDGGELICCDGCPRAFHLACLSPPLREIPSGTWRCSSCLQATVQEVQPRAEEPRPQEPPVETPLPPGLRSAGEEVRGPPGEPLAGMDTTLVYKHLPAPPSAAPLPGLDSSALHPLLCVGPEGQQNLAPGARCGVCGDGTDVLRCTHCAAAFHWRCHFPAGTSRPGTGLRCRSCSGDVTPAPVEGVLAPSPARLAPGPAKDDTASHEPALHRDDLESLLSEHTFDGILQWAIQSMARPAAPFPS

Variants of: B1
Test: AIRE transcriptional activation functional score (insulin promoter-GFP; nonsense median 0, synonymous median 1) (normalised score); higher = higher AIRE activity (more reporter activation)
Conditions: with insulin promoter-GFP reporter in HEK293
Summary of the method: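 The functional score compares variant enrichment between select and non-select populations after subtracting wild type. To obtain it, codon-optimized AIRE NNN-codon libraries spanning three regions were placed by Bxb1 recombinase into Flp-In T-REx HEK293 landing-pad cells with an insulin core promoter-GFP reporter. Cells with the top 10% GFP and unselected integrants were tile-sequenced after mCherry+, BFP− integrants had been sorted at day 7 and grown 7 more days. Only variants with 10 counts per million in non-select were kept, rescaled to nonsense median 0 and synonymous median 1, and averaged across biological replicates.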

AIRE transcriptional activation functional score of substitutions, site by site:
P407: V 1.23 ± 0.21, M 1.6 ± 0.12, I 1.43 ± 0.25, F 1.2 ± 0.22, R 0.823 ± 0.31, N 1.39 ± 0.061, W 1.13 ± 0.046, C 1.24 ± 0.33, E 0.454 ± 0.22, T 1.18 ± 0.27, D 1.67 ± 0.096, Q 1.2 ± 0.15, S 1.19 ± 0.18, A 0.943 ± 0.23, K 0.865 ± 0.052, H 1.28 ± 0.3, G 1.07 ± 0.45, Y 1.51 ± 0.077, L 1.06 ± 0.27
P401: H 1.01 ± 0.13, Y 1.14 ± 0.42, I 0.809 ± 0.28, D 1.07 ± 0.31, R 1.15 ± 0.12, S 1.25 ± 0.26, C 1.7 ± 0.066, Q 1.18 ± 0.098, E 1.49 ± 0.18, K 1.55 ± 0.13, L 0.646 ± 0.35, M 0.689 ± 0.11, G 1.14 ± 0.17, V 0.635 ± 0.58, T 0.717 ± 0.33, N 1.09 ± 0.047, A 0.611 ± 0.47, F 0.595 ± 0.05
S402: Y 1.17 ± 0.2, E 0.833 ± 0.11, G 1.34 ± 0.22, Q 0.546 ± 0.66, F 0.518 ± 0.41, R 1.02 ± 0.21, W 1.22 ± 0.079, M 0.776 ± 0.079, N 1.13 ± 0.11, D 0.871 ± 0.19, T 0.974 ± 0.18, L 0.984 ± 0.3, C 1.1 ± 0.12, P 1.07 ± 0.09, A 1.05 ± 0.24, I 0.78 ± 0.15, V 0.921 ± 0.23, K 0.894 ± 0.2, H 1.48 ± 0.23
S411: D 0.711 ± 0.24, F 1.46 ± 0.16, M 1.37 ± 0.03, G 0.952 ± 0.18, H 0.897 ± 0.04, A 1.04 ± 0.13, N 0.99 ± 0.14, L 1.24 ± 0.24, K 1.18 ± 0.21, V 1.06 ± 0.29, I 1.3 ± 0.15, E 0.407 ± 0.085, Q 0.0682 ± 0.27, R 0.871 ± 0.23, C 1.45 ± 0.089, T 0.867 ± 0.29, W 1.31 ± 0.045, P 1.08 ± 0.49, Y 1.06 ± 0.14
A404: R 1.01 ± 0.27, Y 1.3 ± 0.057, G 0.91 ± 0.49, W 1.16 ± 0.096, K 1.05 ± 0.12, S 1.02 ± 0.27, D 0.792 ± 0.33, P 1.28 ± 0.2, Q 0.81 ± 0.25, E 0.954 ± 0.15, I 0.94 ± 0.23, L 1.26 ± 0.15, F 1.26 ± 0.26, T 1.04 ± 0.15, C 0.451 ± 0.097, V 0.729 ± 0.3, H 1.66 ± 0.044, M 0.918 ± 0.11
A403: L 1.29 ± 0.44, P 0.99 ± 0.26, Q 0.915 ± 0.11, M 1.38 ± 0.064, E 1.14 ± 0.42, F 1.09 ± 0.12, N 1.09 ± 0.056, R 0.877 ± 0.27, I 1.5 ± 0.21, C 0.942 ± 0.27, G 1.26 ± 0.23, W 1.72 ± 0.033, D 0.541 ± 0.099, V 1.29 ± 0.082, K 1.06 ± 0.21, S 0.725 ± 0.4, H 1.02 ± 0.23, T 1.14 ± 0.063, Y 0.507 ± 0.33
P400: C 0.972 ± 0.39, Q 1.52 ± 0.52, Y 1.69 ± 0.045, F 0.712 ± 0.24, V 0.815 ± 0.2, W 1.89 ± 0.07, E 0.545 ± 0.17, S 0.846 ± 0.29, L 0.451 ± 0.31, I 0.76 ± 0.28, T 0.851 ± 0.33, D 0.319 ± 0.071, A 1.56 ± 0.13, H 0.71 ± 0.14, N 0.58 ± 0.082, R 1.16 ± 0.18, G 1.13 ± 0.12
L406: H 1.19 ± 0.13, A 0.954 ± 0.24, K 0.516 ± 0.18, Y 1.02 ± 0.14, N 1.18 ± 0.29, V 0.908 ± 0.14, D 0.772 ± 0.16, C 1.3 ± 0.17, E 1.12 ± 0.1, T 0.633 ± 0.27, Q 1.11 ± 0.32, S 0.856 ± 0.18, I 1.19 ± 0.096, W 0.702 ± 0.17, M 1.3 ± 0.16, F 0.76 ± 0.32, G 1.08 ± 0.21, P 0.97 ± 0.28, R 0.985 ± 0.22
A413: C 1.42 ± 0.077, D 0.666 ± 0.15, T 1.17 ± 0.17, W 1.15 ± 0.072, N 0.373 ± 0.085, I 1.34 ± 0.27, L 1.43 ± 0.2, G 1.12 ± 0.37, M 1.02 ± 0.11, H 0.905 ± 0.19, S 0.965 ± 0.2, K 0.606 ± 0.33, Y 1.25 ± 0.14, F 0.975 ± 0.14, V 0.931 ± 0.37, Q 1.01 ± 0.047, R 0.964 ± 0.14, E 0.842 ± 0.12, P 0.731 ± 0.39
